Patent US20110008766A1 (AbbVie / Abbott, published 2011)

Tests used:
[1] = target: T1, neutrophil gelatinase associated lipocalin (NGAL) (UniProt P80188 21-198); experiment: FRET quenching titration in solution; ALEXA 488-antigen, BHQ-labelled binder
T1 construct: also called recombinant NGAL
Method: (§1) Briefly, the dissociation constants for the outer variable binding domain and the inner variable binding domain of a given DVD-Ig and its corresponding antigen were measured in direct binding experiments. […] After 30 minutes of incubation, all samples were measured on an SLM 8100 photon counting spectrofluorimeter. Samples were excited at 480 nm, and the emission was collected through a 530 nm (30 nm bandwidth) interference filter (Chroma Technology Corp., Rockingham, Vt.). All binding measurements were performed in 10 mM HEPES buffer, pH 7.4, containing 0.15 M NaCl, 3 mM EDTA, and 0.005% surfactant P20.
(§2) where Ligandₜₒₜₐₗ and ABSₜₒₜₐₗ are the -antigen concentrations and the total DVD-Ig binding sites for that antigen, respectively, and Fbound is the fraction of bound antigen. The binding data were fitted with a simple binding model to obtain the equilibrium dissociation constant (KD) according to equation [2]: […]

[2] = target: T1, neutrophil gelatinase associated …; experiment: FRET quenching titration in solution; one value given for outer and inner domain
Method: as §1, §2

[3] = target: T2, brain natriuretic peptide (BNP) (UniProt P16860 103-134); experiment: FRET quenching titration in solution; ALEXA 488-antigen, BHQ-labelled binder
T2 construct: ALEXA Fluor 488-labelled in the FRET assay
Method: as §1, §2

[4] = target: T2, brain natriuretic peptide (BNP); experiment: FRET quenching titration in solution; one value given for outer and inner domain
Method: as §1, §2

[5] = target: T1, neutrophil gelatinase associated …; experiment: FRET quenching titration in solution; one value printed for outer (2322) and inner (903) domain
Method: as §1, §2

interleukin 18 (IL-18) = target: T3, interleukin 18 (IL-18) (UniProt Q14116 37-193); experiment: FRET quenching titration in solution; outer domain (IL-18 1-4091); outer domain (IL-18 1-4091)
T3 construct: ALEXA Fluor 488-labelled in the FRET assay
Method: as §1, §2

[6] = target: T1, neutrophil gelatinase associated …; experiment: FRET quenching titration in solution; inner domain (NGAL 1-2322-455); inner domain (NGAL 1-2322-455)
Method: as §1, §2

T1 sequence (P80188 21-198 limits assumed): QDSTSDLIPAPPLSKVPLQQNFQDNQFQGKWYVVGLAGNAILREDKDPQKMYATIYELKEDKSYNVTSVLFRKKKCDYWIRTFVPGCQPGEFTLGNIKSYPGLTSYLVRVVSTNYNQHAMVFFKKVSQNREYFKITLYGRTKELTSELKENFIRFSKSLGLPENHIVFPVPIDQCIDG

B1: AB082 (antibody, V domains shown)
VH: EVQLVESGGGLVQPGGSLKLSCAASGFTFNNYYMSWVRQTPERRLEWVAYISSSGGSTYYSDSVRGRFTISRDTARNTLYLQMTSLKSEDTAMYYCARHFGDYSYFDYWGQGTTLTVSS
VL: DIQMTQSPASLSASVGETVTITCRASENFYSYLAWYQQKQGKSPQLLVYNAKTLAEGVPSRFSGSGSGTQFSLKINSLQPEDFGTYYCQHHYDIPLTFGAGTKLELKR
notes: also called AB082 (2322); Chimeric mAb 2322
Kd [1]: < 0.05 nM

B2: DVD721 (antibody)
VH: KIQLVQSGPELKKPGETVKISCKASGYTFTNYGMNWVKQAPGKGLKWMGWININTGEPTYAEEFKGRFAFSLETSATTAFLQINNLKNEDTATYLCARDSYSGGFDYWGQGTIVTVSSASTKGPSVFPLAPKIQLVQSGPELKKPGETVKISCKASGYTFTNYGMNWVKQAPGKGLKWMGWININTGEPTYAEEFKGRFAFSLETSATTAFLQINNLKNEDTATYLCARDSYSGGFDYWGQGTIVTVSS
VL: DIVMTQSPSSLSVSAGEKVTLSCKSSQSLLISGDQKNYLAWYQQKPGQPPKLLIYGASTRDSGVPDRFTGSGSGADFTLTISSVQAEDLAVYYCQNDHSFPPTFGAGTKLELKRTVAAPSVFIFPPDIVMTQSPSSLSVSAGEKVTLSCKSSQSLLISGDQKNYLAWYQQKPGQPPKLLIYGASTRDSGVPDRFTGSGSGADFTLTISSVQAEDLAVYYCQNDHSFPPTFGAGTKLELKR
notes: also called DVD721 (903-903-LL)
Kd [2]: < 0.3 nM

B3: AB090 (antibody, V domains shown)
VH: QVQLQQPGAELVRPGASVKLSCKASGYTFTSYWMNWVKQRPEQGLEWIGRIDPYDSETHYNQKFKDKAILTVDKSSSTAFVQLTSLTSEDSAVYYCVSDGYWGAGTTVTVSS
VL: DVVMTQTPLTLSVTTGQPASISCKSSQSLLDSDGKTYLNWLFQRPGESPKLLIYVVSKLESGVPDRFTGSGSGTDFTLKISRVEAEDLGVYYCLQATHFPWTFGGGTKLEIKR
notes: also called BNP 3-631-436
Kd [3]: 0.3 nM

B4: DVD738 (bispecific antibody)
VH: QIQLVQSGPELRKPGETVKISCKGSGYTFTHYGINWVKQTPRKDLKWMGWINTHTGEAYYADDFKGRFAFSLETSANTAYLQINNLNNGDMGTYFCTRSHRFGLDYWGQGTSVTVSSASTKGPSVFPLAPQVQLQQPGAELVRPGASVKLSCKASGYTFTSYWMNWVKQRPEQGLEWIGRIDPYDSETHYNQKFKDKAILTVDKSSSTAFVQLTSLTSEDSAVYYCVSDGYWGAGTTVTVSS
VL: DNVLTQSPPSLAVSLGQRATISCKANWPVDYNGDSYLNWYQQKPGQPPKFLIYAASNLESGIPARFSGSGSGTDFNLNIHPVEEEDAATYYCQQSNEDPFTFGSGTKLEIKRTVAAPSVFIFPPDVVMTQTPLTLSVTTGQPASISCKSSQSLLDSDGKTYLNWLFQRPGESPKLLIYVVSKLESGVPDRFTGSGSGTDFTLKISRVEAEDLGVYYCLQATHFPWTFGGGTKLEIKR
notes: also called DVD738H/DVD738L
Kd [4]: < 0.03 nM

B5: DVD720 (antibody)
VH: EVQLVESGGGLVQPGGSLKLSCAASGFTFNNYYMSWVRQTPERRLEWVAYISSSGGSTYYSDSVRGRFTISRDTARNTLYLQMTSLKSEDTAMYYCARHFGDYSYFDYWGQGTTLTVSSASTKGPEVQLVESGGGLVQPGGSLKLSCAASGFTFNNYYMSWVRQTPERRLEWVAYISSSGGSTYYSDSVRGRFTISRDTARNTLYLQMTSLKSEDTAMYYCARHFGDYSYFDYWGQGTTLTVSS
VL: DIQMTQSPASLSASVGETVTITCRASENFYSYLAWYQQKQGKSPQLLVYNAKTLAEGVPSRFSGSGSGTQFSLKINSLQPEDFGTYYCQHHYDIPLTFGAGTKLELKRTVAAPDIQMTQSPASLSASVGETVTITCRASENFYSYLAWYQQKQGKSPQLLVYNAKTLAEGVPSRFSGSGSGTQFSLKINSLQPEDFGTYYCQHHYDIPLTFGAGTKLELKR
notes: also called DVD720 (2322-2322-SS)
Kd [2]: < 0.07 nM

B6: DVD723 (bispecific antibody)
VH: EVQLVESGGGLVQPGGSLKLSCAASGFTFNNYYMSWVRQTPERRLEWVAYISSSGGSTYYSDSVRGRFTISRDTARNTLYLQMTSLKSEDTAMYYCARHFGDYSYFDYWGQGTTLTVSSASTKGPSVFPLAPKIQLVQSGPELKKPGETVKISCKASGYTFTNYGMNWVKQAPGKGLKWMGWININTGEPTYAEEFKGRFAFSLETSATTAFLQINNLKNEDTATYLCARDSYSGGFDYWGQGTIVTVSS
VL: DIQMTQSPASLSASVGETVTITCRASENFYSYLAWYQQKQGKSPQLLVYNAKTLAEGVPSRFSGSGSGTQFSLKINSLQPEDFGTYYCQHHYDIPLTFGAGTKLELKRTVAAPSVFIFPPDIVMTQSPSSLSVSAGEKVTLSCKSSQSLLISGDQKNYLAWYQQKPGQPPKLLIYGASTRDSGVPDRFTGSGSGADFTLTISSVQAEDLAVYYCQNDHSFPPTFGAGTKLELKR
notes: also called DVD723 (2322-903-LL)
Kd [5]: < 0.2 nM

B7: DVD730 (bispecific antibody)
VH: QVQLQQPGSELVRPGASVKLSCKASGYTFTSYWMHWVKQRPGQGLEWIGNIYPGTVNTNYDEKFKNKATLTVDTSSSTAYMLLSSLTSEDSAVYYCTRDYYGGGLNYWGQGTTLTVSSASTKGPEVQLVESGGGLVQPGGSLKLSCAASGFTFNNYYMSWVRQTPERRLEWVAYISSSGGSTYYSDSVRGRFTISRDTARNTLYLQMTSLKSEDTAMYYCARHFGDYSYFDYWGQGTTLTVSS
VL: SIVMTQTPKFLLVSAGDRVTITCKASQSVSNDVAWFQQKPGQSPKLLIYYASNRYAGVPDRFTGSGFGTDFTFTISTVQAEDLAVYFCHQDYSSPRTFGGGTKLEIKRTVAAPDIQMTQSPASLSASVGETVTITCRASENFYSYLAWYQQKQGKSPQLLVYNAKTLAEGVPSRFSGSGSGTQFSLKINSLQPEDFGTYYCQHHYDIPLTFGAGTKLELKR
notes: also called DVD730 (IL18-2322-SS)
Kd (interleukin 18 (IL-18)): 0.6 nM

B8: AB083 (antibody, V domains shown)
VH: KIQLVQSGPELKKPGETVKISCKASGYTFTNYGMNWVKQAPGKGLKWMGWININTGEPTYAEEFKGRFAFSLETSATTAFLQINNLKNEDTATYLCARDSYSGGFDYWGQGTIVTVSS
VL: DIVMTQSPSSLSVSAGEKVTLSCKSSQSLLISGDQKNYLAWYQQKPGQPPKLLIYGASTRDSGVPDRFTGSGSGADFTLTISSVQAEDLAVYYCQNDHSFPPTFGAGTKLELKR
notes: also called AB083 (903); Chimeric mAb 903
Kd [1]: 0.7 nM

B9: DVD731 (bispecific antibody)
VH: QVQLQQPGSELVRPGASVKLSCKASGYTFTSYWMHWVKQRPGQGLEWIGNIYPGTVNTNYDEKFKNKATLTVDTSSSTAYMLLSSLTSEDSAVYYCTRDYYGGGLNYWGQGTTLTVSSASTKGPSVFPLAPEVQLVESGGGLVQPGGSLKLSCAASGFTFNNYYMSWVRQTPERRLEWVAYISSSGGSTYYSDSVRGRFTISRDTARNTLYLQMTSLKSEDTAMYYCARHFGDYSYFDYWGQGTTLTVSS
VL: SIVMTQTPKFLLVSAGDRVTITCKASQSVSNDVAWFQQKPGQSPKLLIYYASNRYAGVPDRFTGSGFGTDFTFTISTVQAEDLAVYFCHQDYSSPRTFGGGTKLEIKRTVAAPSVFIFPPDIQMTQSPASLSASVGETVTITCRASENFYSYLAWYQQKQGKSPQLLVYNAKTLAEGVPSRFSGSGSGTQFSLKINSLQPEDFGTYYCQHHYDIPLTFGAGTKLELKR
notes: also called DVD731 (IL18-2322-LL)
Kd [6]: 0.08 nM
Kd (interleukin 18 (IL-18)): 0.9 nM

B10: DVD719 (antibody)
VH: EVQLVESGGGLVQPGGSLKLSCAASGFTFNNYYMSWVRQTPERRLEWVAYISSSGGSTYYSDSVRGRFTISRDTARNTLYLQMTSLKSEDTAMYYCARHFGDYSYFDYWGQGTTLTVSSASTKGPSVFPLAPEVQLVESGGGLVQPGGSLKLSCAASGFTFNNYYMSWVRQTPERRLEWVAYISSSGGSTYYSDSVRGRFTISRDTARNTLYLQMTSLKSEDTAMYYCARHFGDYSYFDYWGQGTTLTVSS
VL: DIQMTQSPASLSASVGETVTITCRASENFYSYLAWYQQKQGKSPQLLVYNAKTLAEGVPSRFSGSGSGTQFSLKINSLQPEDFGTYYCQHHYDIPLTFGAGTKLELKRTVAAPSVFIFPPDIQMTQSPASLSASVGETVTITCRASENFYSYLAWYQQKQGKSPQLLVYNAKTLAEGVPSRFSGSGSGTQFSLKINSLQPEDFGTYYCQHHYDIPLTFGAGTKLELKR
notes: also called DVD719 (2322-2322-LL)
Kd [2]: < 0.05 nM

B11: DVD736 (bispecific antibody)
VH: QVQLQQPGAELVRPGASVKLSCKASGYTFTSYWMNWVKQRPEQGLEWIGRIDPYDSETHYNQKFKDKAILTVDKSSSTAFVQLTSLTSEDSAVYYCVSDGYWGAGTTVTVSSASTKGPSVFPLAPQIQLVQSGPELRKPGETVKISCKGSGYTFTHYGINWVKQTPRKDLKWMGWINTHTGEAYYADDFKGRFAFSLETSANTAYLQINNLNNGDMGTYFCTRSHRFGLDYWGQGTSVTVSS
VL: DVVMTQTPLTLSVTTGQPASISCKSSQSLLDSDGKTYLNWLFQRPGESPKLLIYVVSKLESGVPDRFTGSGSGTDFTLKISRVEAEDLGVYYCLQATHFPWTFGGGTKLEIKRTVAAPSVFIFPPDNVLTQSPPSLAVSLGQRATISCKANWPVDYNGDSYLNWYQQKPGQPPKFLIYAASNLESGIPARFSGSGSGTDFNLNIHPVEEEDAATYYCQQSNEDPFTFGSGTKLEIKR
notes: also called DVD736H/DVD736L
Kd [4]: < 0.03 nM
